# The supplement of paper PMC10567573
# ± gives the standard deviation.
# Assay: protein stability index of a GFP-peptide fusion (GPS, HEK-293T) (PSI 1-6); higher = more stable
# [1] = treatment: DMSO, c terminus: a fixed tail appended
# [2] = treatment: MLN4924 1 uM, 8 h, c terminus: a fixed tail appended
# [3] = treatment: DMSO, c terminus: native
# [4] = treatment: MLN4924 1 uM, 8 h, c terminus: native
# 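Further: 24-mer peptide tiles fused after GFP, lentivirally expressed, FACS-sorted into six equal bins by GFP/DsRed ratio, decoded by Illumina sequencing, PSI is the read-weighted mean bin number.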
Sequence,protein stability index [1],protein stability index [2],protein stability index [3],protein stability index [4]
TDCGKAFLKKSQLTEHKRIHTGKK [ZNF649],3.62 ± 0.5,3.48 ± 0.42,–,–
TDDRIVVPQRGRSTRVPVASVLI [SPNS1],–,–,2.64 ± 0.13,2.82 ± 0.42
TDRGNDNWLIKYDCPMDSSSSRDT [PI4K2A],4.44 ± 0.2,4.42 ± 0.075,–,–
TEALILQLFSQIGPCKNCKMIMDT [TIA1],2.75 ± 0.37,2.53 ± 0.41,–,–
TEMAASSQGNFEGNFESLDLAEFA [FUNDC2],5.21 ± 0.42,5.1 ± 0.44,–,–
TGEASENGLEDIDRILERIEDSTG [TCF25],5.47 ± 0.074,5.46 ± 0.29,–,–
TGELVGPFVSAMPTPMPHNKGTRF [ZBED2],3.64 ± 0.11,3.79 ± 0.23,–,–
TGLELIAEESNPPLQDFPNSISSD [MIA2],5.2 ± 0.097,5.33 ± 0.25,–,–
TIRLNISDVNDNAPRFNQQLYTAY [PCDHGC5],2.41 ± 0.18,2.37 ± 0.2,–,–
TISEFILSEDYNKMTPVKNYQAHQ [WDFY2],2.66 ± 0.16,2.78 ± 0.14,–,–
TITIGMFPAVTVEVKSSIAGSSTW [SLC29A1],2.58 ± 0.6,2.4 ± 0.5,–,–
TKDPDVAFHGLSLGLSLTNGLALG [PSD2],2.46 ± 0.21,2.43 ± 0.25,–,–
TKEEGLALAREFSCPFFETSAAYR [RIT1],3.15 ± 0.29,3.13 ± 0.15,–,–
TKELDQWIEQLNECKQLSESQVKS [PPP2CA],4.71 ± 0.094,4.69 ± 0.12,–,–
TLYRPEEGYCQAQAPIAAVLLMHM [TBC1D10A],2.52 ± 0.42,2.43 ± 0.45,–,–
TMDNKKGRRYEAVKWMVVFAIGVC [CLCN6],2.58 ± 0.35,2.64 ± 0.82,–,–
TNLTWDQVITLDQVLDEVIPIHGK [TENT5D],2.47 ± 0.16,2.61 ± 0.3,–,–
TPTPFFHTFAGDDCQAGLNFADED [WAS],4.86 ± 0.25,5 ± 0.07,–,–
TPYLKETLNSIWNVEDHINPKLPN [POMT2],3.37 ± 0.28,3.45 ± 0.2,–,–
TQGLPWRFEELLTCSHWPSFFPS [TEX19],–,–,2.78 ± 0.46,2.24 ± 0.87
TQRQYKEDESQSEEENDYRNLDAS [CEP70],5.41 ± 0.25,5.51 ± 0.6,–,–
TSFALERNLRTQQEIEDKMKGFSF [C8orf76],3.54 ± 0.19,3.53 ± 0.2,–,–

Sequence,protein stability index [1],protein stability index [2],protein stability index [3],protein stability index [4]
TSVEEESFGPQPISRLEQCGINAN [RAD51],4.63 ± 0.39,4.63 ± 0.18,–,–
TTIEDEDAKARKQEIIKTTEQLIE [CAMK2B],5.14 ± 0.22,5.32 ± 0.24,–,–
TTPPGHGTLDNSKSMKPYNYCSAY [NEUROD6],3.27 ± 0.18,3.25 ± 0.17,–,–
TTSEEAVGGATLAQTTSEAAMEGA [HDAC6],5.59 ± 0.34,5.43 ± 0.31,–,–
TTTRHKRTANPSKTIDLGAAAHYT [CLINT1],3.94 ± 0.2,4.06 ± 0.16,–,–
TVARPVFTEYQASAFGNVKLVVHD [RHOBTB3],3.06 ± 0.33,3.17 ± 0.23,–,–
TVFRAILDYYKTGIIRCPDGISIP [BTBD10],3.01 ± 0.24,2.56 ± 0.43,–,–
TVSSPIPYTPSPSSSRPISPGLSY [CCDC6],3.58 ± 0.1,3.61 ± 0.45,–,–
TYRIRIEMSKDALPEKACQLDSRY [FBXO3],2.37 ± 0.12,2.57 ± 0.35,–,–
VAGNPQDTRLRYSFFVPRPTPSTP [ADAMTS4],3.11 ± 0.36,3.18 ± 0.25,–,–
VAKLESECLKRQGQREPGSLSRNN [FBXO34],4.77 ± 0.098,4.75 ± 0.35,–,–
VAKLQESQPGNAVIDKETIDLLAF [SDE2],2.98 ± 0.48,3.29 ± 0.37,–,–
VATNSAGTRYSAPANLYVRELREV [PTPRD],3.05 ± 0.32,3.45 ± 0.37,–,–
VAWNGPRMGDADYLAAWHRLVLPI [HDAC6],2.52 ± 0.52,2.26 ± 0.25,–,–
VCESMKEQLLVLVEWAKYIPAFCE [HNF4A],2.51 ± 0.38,2.34 ± 0.38,–,–
VCLMGHERRQTLNLISLLALRVLA [TENT5C],2.72 ± 0.56,2.5 ± 0.37,–,–
VCVGSDVTSIHKYMVRRYFNKPSR [MYORG],2.37 ± 0.2,2.34 ± 0.18,–,–
VDGKTIKAQIWDTAGQERYRAITS [RAB11A],3.34 ± 0.19,3.68 ± 0.22,–,–
VDNISTLDSEIKKNSDGMEAAGVQ [CD207],5.4 ± 0.37,5.49 ± 0.23,–,–
VDPIGHVYIFATCLGLSYDGLLGD [MAGEA6],3.17 ± 0.45,3.1 ± 0.29,–,–
VEGFRITLVDESDLYNWEVAIFGP [UBE2R2],2.84 ± 0.79,2.52 ± 0.68,–,–
VEIVKSDFHKPFLGGFRHKVTGVE [IQUB],2.17 ± 0.23,2.5 ± 0.39,–,–
